Experiment [1] addresses Her2/ERBB2 Protein, Human, Recombinant (ECD, His Tag) (human) (UniProt P04626). Nature of the experiment: ELISA, control on human HER2 antigen.
Experiment [2] shares this target. Put plainly: ELISA, E. coli lysate supernatant on human HER2 antigen. (ELISA stands for enzyme-linked immunosorbent assay.)

For the molecule Irrelevant, in experiment [1], the OD450 amounted to 0.073 OD450.

B1: M26H2-3134 (VHH)
VHH: QVQLVESGGGMVQPGGSLRLSCAASGITFRHYTMSWYRQAPGKERELVASITYGGVTTNYADSVKGRFTLSRDDAKTTAYLQMTGLKPEDTAVYYCHADWTAAGLNHWGQGTQVTVSS
B1: the OD450 in experiment [2] was determined as 1.03 OD450.

B2: M26H2-2002 (VHH)
VHH: QVQLVESGGGLVQPGGSLRLSCAASGFIFGNYPMNWYRQAPGKEREFVAVITRDGGVTRYAASVKGRFTITRDNAKNTVFLQMNSLKLEDTAVYYCHNPNYNAWGQGTQVTVAS
On to B2, for which the OD450 in experiment [2] was determined as 0.804 OD450.

(Values after EP4818210A1.)
